Data on five molecules can be found in paper doi:10.1101/2022.04.18.488654, “The DNA replication initiation protein DnaD is recruited to a specific strand of the Bacillus subtilis chromosome origin” (bioRxiv, 2022).

Data set [1] concerns the molecule itself. Nature of the data set: SEC-MALS; purified DnaD variants; 20°C; 40 mM Tris-HCl pH 8, 500 mM NaCl, 1 mM EDTA, 20 mM imidazole, 2.5% v/v glycerol.
Data set [2] deals with the molecule itself. Briefly: SEC; Superdex 200 Increase 10/300GL, 4°C; 40 mM Tris-HCl pH 8, 500 mM NaCl, 1 mM EDTA, 20 mM imidazole. For orientation: SEC sorts molecules by how far they enter the pores of the column.
For a further data set, the target named is T1, DnaD F6A (Bacillus subtilis 168CA, UniProt P39787 1-232, F6A).
T1 sequence: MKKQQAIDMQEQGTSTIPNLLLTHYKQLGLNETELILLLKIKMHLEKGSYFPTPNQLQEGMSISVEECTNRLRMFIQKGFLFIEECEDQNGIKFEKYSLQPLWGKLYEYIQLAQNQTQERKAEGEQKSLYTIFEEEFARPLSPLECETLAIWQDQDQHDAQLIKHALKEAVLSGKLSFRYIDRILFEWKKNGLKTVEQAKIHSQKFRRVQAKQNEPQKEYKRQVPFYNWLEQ
Briefly: fluorescence polarisation; similar to WT; FP: 10 mM HEPES-KOH pH 7.5, 1 mM Mg acetate, 100 mM K glutamate, 20 C, 10 min, 1.875 nM DNA; crosslinking buffer not in material. As to conditions: protein: recombinant; tags: His14-SUMO tag cleaved; chain copies: 2; label: fluorescein. On the technique in general: Fluorescence polarisation rises when a labelled molecule tumbles more slowly, as on binding a larger partner.

The next data set concerns the target T2, DnaD L22A (Bacillus subtilis 168CA, UniProt P39787 1-232, L22A).
T2 sequence: T1 sequence with A6F, L22A
Briefly: fluorescence polarisation; FP: 10 mM HEPES-KOH pH 7.5, 1 mM Mg acetate, 100 mM K glutamate, 20 C, 10 min, 1.875 nM DNA; crosslinking buffer not in material. As to conditions: protein: recombinant; tags: His14-SUMO tag cleaved; label: fluorescein.

Residue numbers refer to the chain shown, from its start.

The stoichiometry N is the number of molecules, sites or subunits per partner or assembly.

B1: DnaD (wild-type, Bacillus subtilis DNA replication initiation protein) (natural protein, UniProt P39787 1-232, looked up)
chain: T1 sequence with A6F
notes: DnaD, Bacillus subtilis 168CA, amplified from genomic DNA; full-length protein; Tetramer by SEC-MALS and SEC; in the cryo-EM map only a dimer was seen; also called wild-type DnaD; full length DnaD; source: E. coli BL21(DE3)-pLysS, purified (HisTrap, SUMO protease digestion, reverse HisTrap)
Take B1: the “stoichiometry N” value in data set [1] worked out at 4.

B2: DnaD^1-224 (truncation lacking the DnaB interaction region, the last eight residues) (domain or fragment, Bacillus subtilis, UniProt P39787 1-224, looked up)
chain: MKKQQFIDMQEQGTSTIPNLLLTHYKQLGLNETELILLLKIKMHLEKGSYFPTPNQLQEGMSISVEECTNRLRMFIQKGFLFIEECEDQNGIKFEKYSLQPLWGKLYEYIQLAQNQTQERKAEGEQKSLYTIFEEEFARPLSPLECETLAIWQDQDQHDAQLIKHALKEAVLSGKLSFRYIDRILFEWKKNGLKTVEQAKIHSQKFRRVQAKQNEPQKEYKRQV
notes: DnaD, Bacillus subtilis 168CA, residues 1-224 (lacks the last eight amino acid residues of the C-terminal tail); also called C-terminal truncation; source: E. coli BL21(DE3)-pLysS, purified (HisTrap, SUMO protease digestion, reverse HisTrap)
For the molecule B2, the “stoichiometry N” value in data set [2] amounted to 4.

B3: DnaD^1-205 (truncation lacking the entire C-terminal tail) (domain or fragment, Bacillus subtilis, UniProt P39787 1-205, looked up)
chain: MKKQQFIDMQEQGTSTIPNLLLTHYKQLGLNETELILLLKIKMHLEKGSYFPTPNQLQEGMSISVEECTNRLRMFIQKGFLFIEECEDQNGIKFEKYSLQPLWGKLYEYIQLAQNQTQERKAEGEQKSLYTIFEEEFARPLSPLECETLAIWQDQDQHDAQLIKHALKEAVLSGKLSFRYIDRILFEWKKNGLKTVEQAKIHSQK
notes: DnaD, Bacillus subtilis 168CA, residues 1-205 (entire C-terminal tail removed); also called truncation of the DnaD^CTT; source: E. coli BL21(DE3)-pLysS, purified (HisTrap, SUMO protease digestion, reverse HisTrap)
Turning to B3, in data set [1], the “stoichiometry N” value came to 4.

B4: polyT18 (oCW1088) (ssDNA)
DNA: TTTTTTTTTTTTTTTTTT
For the molecule B4, the results for the binding result in the data set with DnaD F6A and in the data set with DnaD L22A were “binds” and “no binding”, respectively.

B5: polyT40 (oCW837) (ssDNA)
DNA: TTTTTTTTTTTTTTTTTTTTTTTTTTTTTTTTTTTTTTTT
In the case of B5, the binding result in the data set with DnaD L22A was “no binding”.
